Laboratory results published in patent US20250197870A1, “RECOMBINANT E. COLI STRAIN PRODUCING 1,3-BUTANEDIOL FROM GLUCOSE AND METHOD FOR PRODUCING 1,3-BUTANEDIOL USING SAME” (ActivON Co.,Ltd., priority 2022, published 2025).

Experiment: Activity of purely isolated 3-HBA reductases (alcohol dehydrogenases) for 3-HBA
Type: biochemical
Conditions: pure enzyme, substrate 3-HBA
Procedure: The activity of alcohol dehydrogenase was determined by photometric monitoring of the increase/decrease in NADP+/NADPH at 340 nm. The reaction mixture included 50 mM Tris-HCl at pH 7.0. For measurement of forward reactions, preparation was followed to include 0.15 mM NADPH and 5 mM 3-hydroxybutyraldehyde as substrates at 37° C. For reverse reactions, 2 mM NADP+ and 30 mM 1,3-BDO were used as cofactors and substrates, respectively. For the reduction reaction, 1 unit of enzymatic activity was defined as the amount of enzyme required to oxidize 1 μmol of NAD(P)H to NADP+ for 1 minute. For oxidation reactions, 1 unit of enzymatic activity was defined as the amount of enzyme required to reduce 1 μmol of NAD(P)+ to NAD(P)H for 1 minute.
Previously, 4 types of enzymes such as Cs_bdh, Ec_yqhD, Kp_dhaT, and Lr_pduQ were tested with 3-HBA reductase (FIG. 3), of which yqhD showing the best performance was used. However, the constant accumulation of 3-HBA and 3-HB indicates a lack of activity in these enzymes. Four aldoketoreductases (AKRs) were tested to improve the conversion from 3-HBA to 1,3-BDO. Two of the selected AKRs were derived from P. denitrificans, one derived from P. putida, and the other from P. aeruginosa. In addition, ygjB and yahK, also known as E. coli-derived alcohol dehydrogenase (ADH), were tested. Thereamong, enzymes coded by ygjB have been reported to have high activity for various aldehydes, especially high activity for butyraldehyde (kcat/Km, 221 sec-1 mM-1), while the enzyme coded by yahK has also been reported to have high activity for various aldehydes, especially high activity for butyraldehyde (kcat/Km, 19.8 sec-1 mM-1). Several ADH genes were cloned into E. coli, mass-produced, isolated and purified, and then tested for the activity of pure enzymes for 3-HBA.

Molecule | Purely isolated enzymatic activity
YahK: E. coli-derived alcohol dehydrogenase, 3-hydroxybutyraldehyde reductase, SEQ ID NO: 36 gene product (protein, listed as Escherichia coli) MKIKAVGAYSAKQPLEPMDITRREPGPNDVKIEIAYCGVCHSDLHQVRSEWAGTVYPCVPGHEIVGRVVAVGDQVEKYAPGDLVGVGCIVDSCKHCEECEDGLENYCDHMTGTYNSPTPDEPGHTLGGYSQQIVVHERYVLRIRHPQEQLAAVAPLLCAGITTYSPLRHWQAGPGKKVGVVGIGGLGHMGIKLAHAMGAHVVAFTTSEAKREAAKALGADEVVNSRNADEMAAHLKSFDFILNTVAAPHNLDDFTTLLKRDGTMTLVGAPATPHKSPEVFNLIMKRRAIAGSMIGGIPETQEMLDFCAEHGIVADIEMIRADQINEAYERMLRGDVKYRFVIDNRTLTD | 6.98 U/mg protein
YgjB (Ahr): E. coli-derived alcohol dehydrogenase, 3-hydroxybutyraldehyde reductase, SEQ ID NO: 35 gene product (protein, listed as Escherichia coli) MSMIKSYAAKEAGGELEVYEYDPGELRPQDVEVQVDYCGICHSDLSMIDNEWGFSQYPLVAGHEVIGRVVALGSAAQDKGLQVGQRVGIGWTARSCGHCDACISGNQINCEQGAVPTIMNRGGFAEKLRADWQWVIPLPENIDIESAGPLLCGGITVFKPLLMHHITATSRVGVIGIGGLGHIAIKLLHAMGCEVTAFSSNPAKEQEVLAMGADKVVNSRDPQALKALAGQFDLIINTVNVSLDWQPYFEALTYGGNFHTVGAVLTPLSVPAFTLIAGDRSVSGSATGTPYELRKLMRFAARSKVAPTTELFPMSKINDAIQHVRDGKARYRVVLKADF | 238 U/mg protein
YqhD: 3-hydroxybutyraldehyde reductase (E. coli), SEQ ID NO: 34 gene product (protein, UniProt Q46856 1-387, looked up) NADPH-dependent aldehyde …: MNNFNLHTPTRILFGKGAIAGLREQIPHDARVLITYGGGSVKKTGVLDQVLDALKGMDVLEFGGIEPNPAYETLMNAVKLVREQKVTFLLAVGGGSVLDGTKFIAAAANYPENIDPWHILQTGGKEIKSAIPMGCVLTLPATGSESNAGAVISRKTTGDKQAFHSAHVQPVFAVLDPVYTYTLPPRQVANGVVDAFVHTVEQYVTKPVDAKIQDRFAEGILLTLIEDGPKALKEPENYDVRANVMWAATQALNGLIGAGVPQDWATHMLGHELTAMHGLDHAQTLAIVLPALWNEKRDTKRAKLLQYAERVWNITEGSDDERIDAAIAATRNFFEQLGVPTHLSDYGLDGSSIPALLKKLEEHGMTQLGENHDITLDVSRRIYEAAR | 0.06 U/mg protein
DhaT: alcohol dehydrogenase from K. pneumoniae (protein, UniProt Q59477 1-387, looked up) 1,3-propanediol dehydrogenase: MSYRMFDYLVPNVNFFGPNAISVVGERCQLLGGKKALLVTDKGLRAIKDGAVDKTLHYLREAGIEVAIFDGVEPNPKDTNVRDGLAVFRREQCDIIVTVGGGSPHDCGKGIGIAATHEGDLYQYAGIETLTNPLPPIVAVNTTAGTASEVTRHCVLTNTETKVKFVIVSWRNLPSVSINDPLLMIGKPAALTAATGMDALTHAVEAYISKDANPVTDAAAMQAIRLIARNLRQAVALGSNLQARENMAYASLLAGMAFNNANLGYVHAMAHQLGGLYDMPHGVANAVLLPHVARYNLIANPEKFADIAELMGENITGLSTLDAAEKAIAAITRLSMDIGIPQHLRDLGVKEADFPYMAEMALKDGNAFSNPRKGNEQEIAAIFRQAF | 0.44 U/mg protein
